Reference: IntAct's records for PubMed 25394380

Molecular target: aph1a_human APH1A (UniProt Q96BI3)
Sequence (Q96BI3 whole entry): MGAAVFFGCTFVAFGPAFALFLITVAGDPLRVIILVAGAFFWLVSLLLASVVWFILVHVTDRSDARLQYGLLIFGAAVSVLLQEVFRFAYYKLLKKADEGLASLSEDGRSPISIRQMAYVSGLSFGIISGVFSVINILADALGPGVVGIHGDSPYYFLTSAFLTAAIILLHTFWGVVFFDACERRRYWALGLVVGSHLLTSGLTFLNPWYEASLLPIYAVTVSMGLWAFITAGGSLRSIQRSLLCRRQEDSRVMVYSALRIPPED

In the case of “Presenilin-1 (Homo sapiens) (from UniProt P49768) G206D”, the “effect of a mutation on the interaction” value is reported as “with no effect”.
